We go through four molecules from publication PMC9900795 (bioRxiv, 2023).

Assay in all cases: pull-down
Experiment [1] addresses Ndel1^ΔCTCC, Ndel1 with the C-terminal coiled-coil containing the purported heavy chain-binding site deleted (UniProt Q9GZM8).
Experiment [2] concerns the target FL-Ndel1^PM, full-length Ndel1 with the five sites phosphorylated by CDK5 mutated to aspartic acid (UniProt Q9GZM8).
The target of experiment [3] is NT-Ndel1, truncation of Ndel1 containing only the N-terminal coiled-coil (UniProt Q9GZM8).
Experiment [4] deals with T1, Lis1 (UniProt P43034 1-410).
T1 sequence: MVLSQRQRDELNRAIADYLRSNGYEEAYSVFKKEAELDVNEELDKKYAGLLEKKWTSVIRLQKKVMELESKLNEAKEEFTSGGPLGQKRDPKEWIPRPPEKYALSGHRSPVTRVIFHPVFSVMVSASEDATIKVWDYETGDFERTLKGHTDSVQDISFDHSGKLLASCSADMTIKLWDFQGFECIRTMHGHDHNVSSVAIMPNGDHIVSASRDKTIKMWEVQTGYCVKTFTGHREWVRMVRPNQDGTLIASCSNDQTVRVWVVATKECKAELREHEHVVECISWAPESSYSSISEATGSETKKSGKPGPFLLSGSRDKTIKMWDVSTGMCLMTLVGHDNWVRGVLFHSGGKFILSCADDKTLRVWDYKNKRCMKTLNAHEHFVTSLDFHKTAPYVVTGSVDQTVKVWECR

Experiment [5] has as its target FL-Ndel1^PM, full-length Ndel1 with the five sites phosphorylated by CDK5 mutated to aspartic acid (UniProt Q9GZM8). The source holds these as a separate data set.

“SNAP-tagged, recombinant full-length human dynein with all associated accessory chains (from UniProt Q14204;O43237;P63172;Q9NP97;P63167) (complex)”: the Kd – broadly, the free concentration of one partner at which half of the binding sites on the other are occupied at equilibrium, for simple one-to-one binding – in experiment [1] came out at 55 nM; in experiment [3], 79 nM. This molecule registered a fold higher affinity than FL-Ndel1 in experiment [2] of 2 fold.

B1: NT-Ndel1, truncation of Ndel1 containing only the N-terminal coiled-coil (domain or fragment)
chain: MDGEDIPDFSSLKEETAYWKELSLKYKQSFQEARDELVEFQEGSRELEAELEAQLVQAEQRNRDLQADNQRLKYEVEALKEKLEHQYAQSYKQVSVLEDDLSQTRAIKEQLHKYVRELEQANDDLERAKRATIVSLEDFEQRLNQAIERNAFLESELDEKESLLVSVQRLKDEARDLRQELAVRERQQEVTR
In the case of B1, in experiment [4], the Kd was approximately 1.2 nM.

B2: full-length Ndel1 (FL-Ndel1), HaloTag at the N-terminus and 6X-His tag at the C-terminus (natural protein)
chain: MDGEDIPDFSSLKEETAYWKELSLKYKQSFQEARDELVEFQEGSRELEAELEAQLVQAEQRNRDLQADNQRLKYEVEALKEKLEHQYAQSYKQVSVLEDDLSQTRAIKEQLHKYVRELEQANDDLERAKRATIVSLEDFEQRLNQAIERNAFLESELDEKESLLVSVQRLKDEARDLRQELAVRERQQEVTRKSAPSSPTLDCEKMDSAVQASLSLPATPVGKGTENTFPSPKAIPNGFGTSPLTPSARISALNIVGDLLRKVGALESKLAACRNFAKDQASRKSYISGNVNCGVLNGNGTKFSRSGHTSFFDKGAVNGFDPAPPPPGLGSSRPSSAPGMLPLSV
For B2, the Kd in experiment [4] was approximately 4 nM.

B3: Lis1 (natural protein)
chain: MVLSQRQRDELNRAIADYLRSNGYEEAYSVFKKEAELDVNEELDKKYAGLLEKKWTSVIRLQKKVMELESKLNEAKEEFTSGGPLGQKRDPKEWIPRPPEKYALSGHRSPVTRVIFHPVFSVMVSASEDATIKVWDYETGDFERTLKGHTDSVQDISFDHSGKLLASCSADMTIKLWDFQGFECIRTMHGHDHNVSSVAIMPNGDHIVSASRDKTIKMWEVQTGYCVKTFTGHREWVRMVRPNQDGTLIASCSNDQTVRVWVVATKECKAELREHEHVVECISWAPESSYSSISEATGSETKKSGKPGPFLLSGSRDKTIKMWDVSTGMCLMTLVGHDNWVRGVLFHSGGKFILSCADDKTLRVWDYKNKRCMKTLNAHEHFVTSLDFHKTAPYVVTGSVDQTVKVWECR
As to B3, the Kd in experiment [5] turned out to be 4 nM.
